# Source: patent US12344663B2, “Anti-C3 antibodies and antigen-binding fragments thereof and their uses for treating eye or ocular diseases” (CDR-Life AG, priority 2021, dated 2025)
# What was measured:
# [1] = Thermal stability by differential scanning fluorimetry (DSF); format: physicochemical
# Description: Differential scanning fluorimetry (DSF) measures protein unfolding by monitory changes in fluorescence as a function of temperature.
# The temperature of protein unfolding (Tm) is tied to the stability of antibodies, specifically to aggregation during storage and long-term stability of the therapeutic product. The thermal transitions of monoclonal antibody CH2 and CH3 domains are typically invariant for different antibodies within an isotype, with the CH2 domain unfolding prior to the CH3 domain.
# human C3 = human C3 (Homo sapiens, UniProt P01024); assay: SPR (Biacore T100) binding to human C3; settings: for Binding affinity to C3 and C3b compared to parental molecule Clone IV: in words
# Method: (§1) The kinetic parameters of the candidates are determined using a surface plasmon resonance (SPR) and Biacore T100 device. C3 and different variants thereof (Table 19) are immobilized as a ligand on a HC30M SPR sensor chip (XanTec bionanalytics, Germany) using EDC/[…] linking chemistry. Five increasing concentrations of each molecule (analyte) are consecutively injected using the single cycle kinetics (SCK) mode to determine the kinetic parameters. Regeneration between the candidates is done with 10 mM glycine*HCl, 2 M NaCl, pH 3.5. The data is fitted to a 1:1 Langmuir binding model and the kinetic parameters of on-rate (ka), off-rate (kd), and affinity […] were determined.
# [2] = Viscosity at high concentrations, cone-plate-rheometer; format: physicochemical; settings: 20° C., shear-rate 1000 s^−1
# Method: Viscosity measurements are performed with the samples prepared for the storage stability study. In addition to the fully formulated samples (10 mM His pH 5.5, 275 mM sucrose, 0.02% w/v Polysorbate20), viscosity of each candidate is also measured in a minimal formulation (10 mM histidine pH 5.5). This is performed to evaluate the drug substance processability (e.g., filtration, pumping, diafiltration, etc.) of the candidates up to 125% of the final drug product concentration of 150 mg/ml.
# Viscosity is measured at 20° C. at a shear-rate of 1000 s^−1 using a cone-plate-rheometer. Briefly, a stepwise increase of the shear rate up to 1,000 s^−1 is done collecting 100 data points, followed by a further increase of the shear rate up to 2000 s^−1, collecting another 10 data points. Finally, a stepwise decrease of the shear rate down to starting rate is done. Good drug product handling properties for filling and syringeability have been observed for all candidates
# human C3b = target: T1, human C3b (Homo sapiens, UniProt P01024); assay: SPR (Biacore T100) binding to human C3b
# T1 construct: C3b is derived from native C3 and is the larger of two elements formed by the cleavage of C3
# Method: as §1
# [3] = Storage stability at 150 mg/ml, chemical degradation by IEX-HPLC; format: physicochemical
# Method: (§2) Clone I, clone II and clone III are tested for storage stability. Samples are concentrated to 150 mg/ml (Vivaspin20 centrifugal device, 5 kDa MWCO at 3800×g) and stored at 25° C. and 40° C. for up to 4 weeks. Samples are analyzed for oligomerization (SE-HPLC) and chemical degradation (IEX-HPLC). The starting monomeric purity as determined by SE-HPLC was 99.96% for each clone. The starting charge purity, as determined by IEX-HPLC was 98.07%, 97.16% and 96.76%, respectively for clone I, II and III.
# human C3 P314L = target: T2, human C3 P314L (Homo sapiens, UniProt P01024, P314L); assay: SPR (Biacore T100) binding to C3 SNP1 P314L
# T2 construct: 6×His (N); made in house; host or cells: CHO (ExpiFectamine CHO Expression Kit)
# Method: as §1
# Single nucleotide polymorphism (SNP) in C3 has been observed across the population and certain SNPs were identified in genome-wide association studies (GWAS) to correlate with an increased risk to develop AMD. […] Very rare variants, which occur in less that 2.5% of the population include K155Q, R735W, S1619W, K65Q and R161W.
# (§3) Proteins are expressed with N-terminal 6×His tag and purified using a HisTrap Excel HP column (GE Healthcare), followed by a size-exclusion chromatography step (SUPERDEX®20010/300GL; GE Healthcare).
# cyno C3 = assay: SPR (Biacore T100) binding to cyno C3; set-up: species or system cynomolgus (Macaca fascicularis)
# Method: as §1
# [4] = target: T3, recombinant C3 (wild-type human C3) (Homo sapiens, UniProt P01024); assay: SPR (Biacore T100) binding to recombinant C3
# T3 construct: 6×His (N); made in house; host or cells: CHO (ExpiFectamine CHO Expression Kit)
# Method: as §1, §3
# human C3 R102G = target: T4, human C3 R102G (Homo sapiens, UniProt P01024, R102G); assay: SPR (Biacore T100) binding to C3 SNP2 R102G
# T4 construct: 6×His (N); made in house; host or cells: CHO (ExpiFectamine CHO Expression Kit)
# Method: as §1
# Single nucleotide polymorphism (SNP) in C3 has been observed across the population and certain SNPs were identified in genome-wide association studies (GWAS) to correlate with an increased risk to develop AMD. Common SNP variants include P314L, which occurs in approximately 23.3% of population, and R102G, which has been reported to occur in approximately 26-29% of population. Very rare variants, which occur in less that 2.5% of the population include K155Q, R735W, S1619W, K65Q and R161W.
# The inventors therefore measured the binding affinity of the scFv of the invention to the most commonly occurring C3 forms, i.e., R102G and P314L. Wild-type human C3, human C3 P314L and human C3 R102G are expressed in the CHO cell line using the ExpiFectamine CHO Expression Kit (Thermo Fisher Scientific). Proteins are expressed with N-terminal 6×His tag and purified using a HisTrap Excel HP column (GE Healthcare), followed by a size-exclusion chromatography step (SUPERDEX®20010/300GL; GE Healthcare).
# [5] = Storage stability at 150 mg/ml, oligomerization by SE-HPLC; format: physicochemical; settings: decrease in monomeric content versus start
# Method: as §2
# complement pathways = assay: Complement inhibition assays, comparison with parental Clone IV; format: biochemical, human; settings: in words
# Description: To identify antibodies that block all 3 complement pathways, antibodies are screened using an enzyme immunoassay for the qualitative determination of functional classical, lectin and alternative complement pathways in human serum using the WEISLAB® Complement system Screen (Svar Life Science AB, Malmö, Sweden).
# Sequence of human C3 (P01024 23-1663): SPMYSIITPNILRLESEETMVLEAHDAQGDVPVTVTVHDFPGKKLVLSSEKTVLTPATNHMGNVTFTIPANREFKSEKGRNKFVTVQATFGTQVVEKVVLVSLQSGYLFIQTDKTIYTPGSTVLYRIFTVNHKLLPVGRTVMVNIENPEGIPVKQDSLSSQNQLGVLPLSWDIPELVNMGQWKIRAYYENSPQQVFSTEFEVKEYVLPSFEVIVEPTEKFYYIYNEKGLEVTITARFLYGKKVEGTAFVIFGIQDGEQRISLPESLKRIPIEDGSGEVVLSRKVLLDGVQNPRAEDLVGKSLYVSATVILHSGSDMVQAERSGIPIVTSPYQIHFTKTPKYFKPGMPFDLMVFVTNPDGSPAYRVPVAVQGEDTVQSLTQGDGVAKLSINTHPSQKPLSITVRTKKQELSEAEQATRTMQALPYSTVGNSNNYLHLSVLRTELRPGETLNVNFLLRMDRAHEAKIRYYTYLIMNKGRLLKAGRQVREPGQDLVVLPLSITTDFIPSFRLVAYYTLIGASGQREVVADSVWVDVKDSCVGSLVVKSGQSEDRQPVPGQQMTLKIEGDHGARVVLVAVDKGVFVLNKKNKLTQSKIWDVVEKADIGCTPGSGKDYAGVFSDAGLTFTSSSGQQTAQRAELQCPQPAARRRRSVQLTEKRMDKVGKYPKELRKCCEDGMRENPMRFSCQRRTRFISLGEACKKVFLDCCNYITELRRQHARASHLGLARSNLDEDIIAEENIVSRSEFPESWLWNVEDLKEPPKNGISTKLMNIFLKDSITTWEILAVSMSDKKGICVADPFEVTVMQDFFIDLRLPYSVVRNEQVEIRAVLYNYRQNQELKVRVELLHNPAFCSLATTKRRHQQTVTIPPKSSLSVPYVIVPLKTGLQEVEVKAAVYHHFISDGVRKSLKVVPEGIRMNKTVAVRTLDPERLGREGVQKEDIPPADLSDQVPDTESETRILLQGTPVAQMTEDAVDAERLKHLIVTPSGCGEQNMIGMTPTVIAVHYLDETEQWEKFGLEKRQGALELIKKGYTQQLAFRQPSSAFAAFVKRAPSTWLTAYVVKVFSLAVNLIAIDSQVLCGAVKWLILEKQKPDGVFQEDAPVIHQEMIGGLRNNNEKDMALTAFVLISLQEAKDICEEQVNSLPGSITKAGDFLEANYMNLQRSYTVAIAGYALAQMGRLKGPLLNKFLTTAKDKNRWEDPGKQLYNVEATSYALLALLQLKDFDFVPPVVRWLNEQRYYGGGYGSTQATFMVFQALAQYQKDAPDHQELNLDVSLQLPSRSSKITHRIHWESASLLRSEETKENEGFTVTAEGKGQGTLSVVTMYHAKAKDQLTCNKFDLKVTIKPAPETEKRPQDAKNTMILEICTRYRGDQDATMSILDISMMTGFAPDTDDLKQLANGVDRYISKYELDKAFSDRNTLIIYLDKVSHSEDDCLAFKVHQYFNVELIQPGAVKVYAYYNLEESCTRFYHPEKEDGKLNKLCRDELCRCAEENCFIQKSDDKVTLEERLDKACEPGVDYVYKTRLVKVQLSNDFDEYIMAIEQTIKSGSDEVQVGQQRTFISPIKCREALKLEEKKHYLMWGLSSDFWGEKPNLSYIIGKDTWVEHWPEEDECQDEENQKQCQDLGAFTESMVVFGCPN
# T2 sequence (P01024 23-1663 P314L): as the sequence (P01024 23-1663) above, with P292L counted along it
# T1 sequence (P01024 23-667 limits assumed): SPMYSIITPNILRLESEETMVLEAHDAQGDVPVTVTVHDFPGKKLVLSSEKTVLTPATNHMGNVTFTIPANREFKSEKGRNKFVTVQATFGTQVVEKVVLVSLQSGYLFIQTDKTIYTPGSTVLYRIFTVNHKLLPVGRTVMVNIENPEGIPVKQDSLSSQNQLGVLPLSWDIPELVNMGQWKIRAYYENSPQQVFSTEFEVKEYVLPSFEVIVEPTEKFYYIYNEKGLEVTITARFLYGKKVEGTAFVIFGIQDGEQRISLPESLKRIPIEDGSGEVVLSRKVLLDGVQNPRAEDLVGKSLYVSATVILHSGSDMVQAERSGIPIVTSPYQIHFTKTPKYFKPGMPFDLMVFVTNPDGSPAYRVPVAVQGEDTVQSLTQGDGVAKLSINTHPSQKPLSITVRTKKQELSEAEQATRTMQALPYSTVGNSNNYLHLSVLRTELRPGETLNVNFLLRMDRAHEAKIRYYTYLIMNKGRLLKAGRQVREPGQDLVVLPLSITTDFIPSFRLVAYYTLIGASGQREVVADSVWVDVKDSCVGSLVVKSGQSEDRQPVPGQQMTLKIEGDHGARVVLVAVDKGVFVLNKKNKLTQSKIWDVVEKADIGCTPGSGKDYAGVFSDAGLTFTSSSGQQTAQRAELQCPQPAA
# T1 sequence (P01024 749-1663 limits assumed): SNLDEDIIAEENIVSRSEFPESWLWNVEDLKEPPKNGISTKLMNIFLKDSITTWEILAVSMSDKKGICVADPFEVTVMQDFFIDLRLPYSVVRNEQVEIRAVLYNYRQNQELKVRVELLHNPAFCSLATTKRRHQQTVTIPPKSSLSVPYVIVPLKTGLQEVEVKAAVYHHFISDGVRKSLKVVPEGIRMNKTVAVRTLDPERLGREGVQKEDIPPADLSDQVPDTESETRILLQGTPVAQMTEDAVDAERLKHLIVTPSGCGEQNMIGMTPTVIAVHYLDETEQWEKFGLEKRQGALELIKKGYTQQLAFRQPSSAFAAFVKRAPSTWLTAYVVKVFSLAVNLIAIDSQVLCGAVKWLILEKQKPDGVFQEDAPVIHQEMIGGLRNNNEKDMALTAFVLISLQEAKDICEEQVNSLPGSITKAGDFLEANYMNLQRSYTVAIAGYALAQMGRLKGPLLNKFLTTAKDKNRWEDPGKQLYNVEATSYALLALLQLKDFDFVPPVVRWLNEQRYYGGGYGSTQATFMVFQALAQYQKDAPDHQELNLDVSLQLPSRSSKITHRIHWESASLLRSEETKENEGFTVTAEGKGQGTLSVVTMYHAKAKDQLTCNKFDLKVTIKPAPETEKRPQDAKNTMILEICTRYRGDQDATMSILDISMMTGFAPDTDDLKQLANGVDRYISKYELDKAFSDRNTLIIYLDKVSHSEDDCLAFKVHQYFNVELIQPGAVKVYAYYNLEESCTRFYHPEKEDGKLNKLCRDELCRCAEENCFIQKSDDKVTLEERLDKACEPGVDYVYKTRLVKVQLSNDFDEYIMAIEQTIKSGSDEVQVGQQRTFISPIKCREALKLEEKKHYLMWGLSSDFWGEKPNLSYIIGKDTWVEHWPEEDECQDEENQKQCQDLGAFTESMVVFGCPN
# T4 sequence (P01024 23-1663 R102G): as the sequence (P01024 23-1663) above, with R80G counted along it
# T3 sequence (P01024 23-1663): as the sequence (P01024 23-1663) above
molecule,measurement,setting,value
"Clone XII: scFv combining affinity maturation substitutions and disulfide bond stabilization, SEQ ID NO: 40 (protein, ScFv) scFv: MQLVLTQSPSASASLGASVKLTCTLSSAHKTYTIDWYQQQPEKCPRYLMQLKSEGSYTKGTGVPDRFSGSSSGAERYLTISSLQSEDEADYYCGTDYGGGYVFGGGTKLTVLGGGGGSGGGGSGGGGSGGGGSQVQVVESGGGSVQPGRSLRLSCAVSGFSLYNYAMNWVRQAPGKGLEWIGIINVGGGTNYASWAKGRFTISTDNSKNTVYLQMNSLRAEDTASYYCARAVGYHHARLDPWGCGTSVTVSS",Melting temperature,"[1]; DSF, Example 4",70.4 °C
"Clone III: humanized anti-C3 scFv, VH SEQ ID NO: 24, VL SEQ ID NO: 25; scFv SEQ ID NO: 30 or 31 (protein) scFv: MQLVLTQSPSASASLGASVKLTCTLSSAHKTYTIDWYQQQPEKCPRYLMQLKSEGSYTKGSGIPDRFSGSSSGAERYLTISSLQSEDEADYYCGTEGVGGYVFGGGTKLTVLGGGGGSGGGGSGGGGSGGGGSQVQLVESGGGSVQPGRSLRLSCAASGFTFSNYAMNWVRQAPGKGLEWVAIINVGGGTNYADSVKGRFTISRDNSKNTLYLQMNSLRAEDTASYYCARAVGYHHARLDPWGCGTSVTVSS",kd C3,human C3; off-rate,3.6e-05 s⁻¹
same,ka C3,human C3; on-rate,240000 M⁻¹ s⁻¹
same,Viscosity [mPa * s] Fully formulated at 150 g/L,"[2]; 10 mM His pH 5.5, 275 mM sucrose, 0.02% w/v Polysorbate20",3.3 mPa * s
same,Viscosity [mPa * s] Minimal buffer at 185 g/L,[2]; 10 mM His pH 5.5,3.2 mPa * s
same,kd C3b,human C3b; off-rate,3.1e-05 s⁻¹
same,ka C3b,human C3b; on-rate,250000 M⁻¹ s⁻¹
same,Starting charge purity (IEX-HPLC),[3]; before storage,96.76%
same,"Storage stability, IEX 4 weeks at 25° C. [D %]",[3]; decrease versus start,0.3 D %
same,"Storage stability, IEX 4 weeks at 40° C. [D %]",[3]; decrease versus start,3.6 D %
same,kd C3 SNP1 P314L,human C3 P314L; off-rate,3.2e-05 s⁻¹
same,ka C3 SNP1 P314L,human C3 P314L; on-rate,250000 M⁻¹ s⁻¹
same,kd cyno C3,cyno C3; off-rate,4.3e-05 s⁻¹
same,ka cyno C3,cyno C3; on-rate,200000 M⁻¹ s⁻¹
same,kd recombinant C3,[4]; off-rate,3.5e-05 s⁻¹
same,ka recombinant C3,[4]; on-rate,270000 M⁻¹ s⁻¹
same,kd C3 SNP2 R102G,human C3 R102G; off-rate,3.2e-05 s⁻¹
same,ka C3 SNP2 R102G,human C3 R102G; on-rate,280000 M⁻¹ s⁻¹
same,"Storage stability, SEC 4 weeks at 25° C. [D %]",[5],0.10 D %
same,"Storage stability, SEC 4 weeks at 40° C. [D %]",[5],0.84 D %
"Clone VII: affinity maturation hit scFv, SEQ ID NO: 35 (protein, ScFv) scFv: MQLVLTQSPSASASLGASVKLTCTLSSAHKTYTIDWYQQQPEKGPRYLMQLKSEGSYTKGTGVPDRFSGSSSGAERYLTISSLQSEDSAVYYCGTEGVGGYVFGCGTKLTVLGGGGGSGGGGSGGGGSGGGGSQVQVVESGGGSVQPGRSLRLSCAVSGFSLYNYAMNWVRQAPGKCLEWIGIINVGGGTNYASWAKGRFTISTDNSKNTVYLQMNSLRAEDTASYYCARAVGYHHHALDPWGQGTSVTVSS",Binding affinity to C3 and C3b compared to parental molecule Clone IV,human C3; C3 and C3b,comparable binding affinity
same,Complement inhibition activity compared to parental molecule Clone IV,complement pathways,comparable
"Clone IX: affinity maturation hit scFv, SEQ ID NO: 37 (protein, ScFv) scFv: MQLVLTQSPSASASLGASVKLTCTLSSAHKTYTIDWYQQQPEKGPRYLMQLKSEGSYTKGTGVPDRFSGSSSGAERYLTISSLQSEDSAVYYCGTDGVGGYVFGCGTKLTVLGGGGGSGGGGSGGGGSGGGGSQVQVVESGGGSVQPGRSLRLSCAVSGFSLYNYAMNWVRQAPGKCLEWIGIINVGGGTNYASWAKGRFTISTDNSKNTVYLQMNSLRAEDTASYYCARAVGYHHHALDPWGQGTSVTVSS",Binding affinity to C3 and C3b compared to parental molecule Clone IV,human C3; C3 and C3b,comparable binding affinity
same,Complement inhibition activity compared to parental molecule Clone IV,complement pathways,comparable
"Clone VIII: affinity maturation hit scFv, SEQ ID NO: 36 (protein, ScFv) scFv: MQLVLTQSPSASASLGASVKLTCTLSSAHKTYTIDWYQQQPEKGPRYLMQLKSEGSYTKGTGVPDRFSGSSSGAERYLTISSLQSEDSAVYYCGTEGVGGYVFGCGTKLTVLGGGGGSGGGGSGGGGSGGGGSQVQVVESGGGSVQPGRSLRLSCAVSGFSLYNYAMNWVRQAPGKCLEWIGIINVGGGTNYASWAKGRFTISTDNSKNTVYLQMNSLRAEDTASYYCARAVGYHHSRLDPWGQGTSVTVSS",Increase in the binding affinity to C3 and C3b compared to Clone IV,human C3; C3 and C3b,approximately 10 fold
same,Complement inhibition activity compared to parental molecule Clone IV,complement pathways,superior performance
"Clone V: reformatted and humanized scFv variant of Clone IV, SEQ ID NO: 33 (protein, ScFv) scFv: MQLVLTQSPSASASLGASVKLTCTLSSAHKTYTIDWYQQQPEKGPRYLMQLKSDGSYTKGTGVPDRFSGSSSGAERYLTISSLQSEDEADYYCGTDYGGGYVFGGGTKLTVLGGGGGSGGGGSGGGGSGGGGSQVQVVESGGGSVQPGRSLRLSCAASGFSLYNYAMNWVRQAPGKGLEWIGIINTDGNTNYASWAKGRFTISTDNSKNTLYLQMNSLRAEDTASYYCPRAVGYHHHALDPWGQGTSVTVSS",Binding affinity to C3 and C3b compared to parental molecule Clone IV,human C3; C3 and C3b,lower binding affinity
same,Complement inhibition activity compared to parental molecule Clone IV,complement pathways,retains its ability to inhibit the classical and alternative complement pathways
"Clone VI: Clone V with additional rabbit residues replaced by germline, SEQ ID NO: 34 (protein, ScFv) scFv: MQLVLTQSPSASASLGASVKLTCTLSSAHKTYTIDWYQQQPEKGPRYLMQLKSDGSYTKGTGVPDRFSGSSSGAERYLTISSLQSEDEADYYCGTDYGGGYVFGGGTKLTVLGGGGGSGGGGSGGGGSGGGGSQVQVVESGGGSVQPGRSLRLSCAASGFSLYNYAMNWVRQAPGKGLEWIGIINTDGNTNYASWAKGRFTISTDNSKNTLYLQMNSLRAEDTASYYCARAVGYHHHALDPWGQGTSVTVSS",Binding affinity to C3 and C3b compared to parental molecule Clone IV,human C3; C3 and C3b,comparable to the parental molecule
same,Increase of thermal stability of the construct,[1]; versus preceding variant,11.7 °C
